What all share (test): co-IP with anti-FLAG, N-FLAG B3GNT2, mass spectrometry
One test addresses T1, TBL2 (human, UniProt Q9Y4P3 1-447).
T1 construct: also called NP_036585.1
T1 sequence (looked up): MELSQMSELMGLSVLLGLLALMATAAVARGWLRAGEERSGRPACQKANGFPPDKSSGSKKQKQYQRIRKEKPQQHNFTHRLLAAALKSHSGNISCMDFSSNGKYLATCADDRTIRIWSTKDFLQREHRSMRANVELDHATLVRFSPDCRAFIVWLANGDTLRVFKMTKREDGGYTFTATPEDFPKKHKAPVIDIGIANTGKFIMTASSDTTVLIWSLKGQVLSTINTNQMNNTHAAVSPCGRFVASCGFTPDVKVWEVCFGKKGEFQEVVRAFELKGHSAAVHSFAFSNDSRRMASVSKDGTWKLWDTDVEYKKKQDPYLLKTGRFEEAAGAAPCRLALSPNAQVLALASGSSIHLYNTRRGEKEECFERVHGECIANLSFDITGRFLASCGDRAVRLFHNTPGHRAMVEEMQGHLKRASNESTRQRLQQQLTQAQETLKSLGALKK

In the next test the target is T2, PKM (human, UniProt P14618 2-531, limits assumed).
T2 construct: also called NP_001193725.1 (+3)

For the next test, the target named is T3, CHCHD3 (human, UniProt Q9NX63 2-227, limits assumed).
T3 construct: also called NP_001304106.1 (+1)
T3 sequence (looked up): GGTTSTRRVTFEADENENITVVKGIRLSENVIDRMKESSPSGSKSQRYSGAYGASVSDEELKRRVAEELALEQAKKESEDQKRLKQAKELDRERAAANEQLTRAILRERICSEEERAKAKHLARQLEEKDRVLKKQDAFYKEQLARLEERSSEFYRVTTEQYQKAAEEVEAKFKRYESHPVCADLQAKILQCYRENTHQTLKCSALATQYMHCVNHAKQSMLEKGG

For another test, the target named is T4, DHX9 (human, UniProt Q08211 1-1270).
T4 construct: also called NP_001348.2

A further test addresses T5, FLG (human, UniProt P20930 1-4061, limits assumed).
T5 construct: also called NP_002007.1

For another test, the target named is T6, S100A7 (human, UniProt P31151 2-101).
T6 construct: also called NP_002954.2
T6 sequence (looked up): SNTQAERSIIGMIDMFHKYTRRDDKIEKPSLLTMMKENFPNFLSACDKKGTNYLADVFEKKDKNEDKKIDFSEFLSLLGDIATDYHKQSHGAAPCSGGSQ

The next test concerns the target T7, GBF1 (human, UniProt Q92538 1-1860, limits assumed).
T7 construct: also called NP_001186307.1 (+13)

The next test concerns the target T8, DDX3X (human, UniProt O00571 2-662).
T8 construct: also called NP_001180345.1 (+1)

Another test deals with T9, PUF60 (human, UniProt Q9UHX1 1-559, limits assumed).
T9 construct: also called NP_016868724.1
T9 sequence (looked up): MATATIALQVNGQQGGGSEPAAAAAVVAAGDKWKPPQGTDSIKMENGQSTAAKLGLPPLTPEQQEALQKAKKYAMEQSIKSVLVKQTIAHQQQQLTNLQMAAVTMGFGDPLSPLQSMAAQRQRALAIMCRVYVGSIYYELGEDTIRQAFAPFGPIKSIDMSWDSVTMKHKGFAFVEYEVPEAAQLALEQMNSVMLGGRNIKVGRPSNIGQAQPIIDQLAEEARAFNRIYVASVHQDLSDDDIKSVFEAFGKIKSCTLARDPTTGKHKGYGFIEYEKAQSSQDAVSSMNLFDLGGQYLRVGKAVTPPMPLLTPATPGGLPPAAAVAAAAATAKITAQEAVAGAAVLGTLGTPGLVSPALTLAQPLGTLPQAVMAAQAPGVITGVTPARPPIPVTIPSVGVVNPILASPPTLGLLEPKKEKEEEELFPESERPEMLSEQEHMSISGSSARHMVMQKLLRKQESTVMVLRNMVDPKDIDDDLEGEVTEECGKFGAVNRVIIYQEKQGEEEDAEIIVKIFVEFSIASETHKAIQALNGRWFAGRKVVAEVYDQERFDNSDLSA

T2 sequence (P14618 2-531 limits assumed): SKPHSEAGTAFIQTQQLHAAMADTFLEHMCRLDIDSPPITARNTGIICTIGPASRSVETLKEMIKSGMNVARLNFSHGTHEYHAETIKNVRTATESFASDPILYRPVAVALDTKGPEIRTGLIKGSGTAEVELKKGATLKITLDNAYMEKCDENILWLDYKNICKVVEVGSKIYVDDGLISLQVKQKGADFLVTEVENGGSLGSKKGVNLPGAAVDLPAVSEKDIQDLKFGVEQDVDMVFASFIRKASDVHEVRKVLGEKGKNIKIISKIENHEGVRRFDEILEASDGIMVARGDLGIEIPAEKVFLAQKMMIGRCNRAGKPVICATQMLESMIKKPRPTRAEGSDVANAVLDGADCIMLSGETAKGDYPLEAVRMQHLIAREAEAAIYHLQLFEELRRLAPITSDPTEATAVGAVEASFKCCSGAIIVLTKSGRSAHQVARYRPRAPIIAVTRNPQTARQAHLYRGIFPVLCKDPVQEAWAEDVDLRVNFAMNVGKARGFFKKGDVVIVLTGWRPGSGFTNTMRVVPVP
T7 sequence (Q92538 whole entry): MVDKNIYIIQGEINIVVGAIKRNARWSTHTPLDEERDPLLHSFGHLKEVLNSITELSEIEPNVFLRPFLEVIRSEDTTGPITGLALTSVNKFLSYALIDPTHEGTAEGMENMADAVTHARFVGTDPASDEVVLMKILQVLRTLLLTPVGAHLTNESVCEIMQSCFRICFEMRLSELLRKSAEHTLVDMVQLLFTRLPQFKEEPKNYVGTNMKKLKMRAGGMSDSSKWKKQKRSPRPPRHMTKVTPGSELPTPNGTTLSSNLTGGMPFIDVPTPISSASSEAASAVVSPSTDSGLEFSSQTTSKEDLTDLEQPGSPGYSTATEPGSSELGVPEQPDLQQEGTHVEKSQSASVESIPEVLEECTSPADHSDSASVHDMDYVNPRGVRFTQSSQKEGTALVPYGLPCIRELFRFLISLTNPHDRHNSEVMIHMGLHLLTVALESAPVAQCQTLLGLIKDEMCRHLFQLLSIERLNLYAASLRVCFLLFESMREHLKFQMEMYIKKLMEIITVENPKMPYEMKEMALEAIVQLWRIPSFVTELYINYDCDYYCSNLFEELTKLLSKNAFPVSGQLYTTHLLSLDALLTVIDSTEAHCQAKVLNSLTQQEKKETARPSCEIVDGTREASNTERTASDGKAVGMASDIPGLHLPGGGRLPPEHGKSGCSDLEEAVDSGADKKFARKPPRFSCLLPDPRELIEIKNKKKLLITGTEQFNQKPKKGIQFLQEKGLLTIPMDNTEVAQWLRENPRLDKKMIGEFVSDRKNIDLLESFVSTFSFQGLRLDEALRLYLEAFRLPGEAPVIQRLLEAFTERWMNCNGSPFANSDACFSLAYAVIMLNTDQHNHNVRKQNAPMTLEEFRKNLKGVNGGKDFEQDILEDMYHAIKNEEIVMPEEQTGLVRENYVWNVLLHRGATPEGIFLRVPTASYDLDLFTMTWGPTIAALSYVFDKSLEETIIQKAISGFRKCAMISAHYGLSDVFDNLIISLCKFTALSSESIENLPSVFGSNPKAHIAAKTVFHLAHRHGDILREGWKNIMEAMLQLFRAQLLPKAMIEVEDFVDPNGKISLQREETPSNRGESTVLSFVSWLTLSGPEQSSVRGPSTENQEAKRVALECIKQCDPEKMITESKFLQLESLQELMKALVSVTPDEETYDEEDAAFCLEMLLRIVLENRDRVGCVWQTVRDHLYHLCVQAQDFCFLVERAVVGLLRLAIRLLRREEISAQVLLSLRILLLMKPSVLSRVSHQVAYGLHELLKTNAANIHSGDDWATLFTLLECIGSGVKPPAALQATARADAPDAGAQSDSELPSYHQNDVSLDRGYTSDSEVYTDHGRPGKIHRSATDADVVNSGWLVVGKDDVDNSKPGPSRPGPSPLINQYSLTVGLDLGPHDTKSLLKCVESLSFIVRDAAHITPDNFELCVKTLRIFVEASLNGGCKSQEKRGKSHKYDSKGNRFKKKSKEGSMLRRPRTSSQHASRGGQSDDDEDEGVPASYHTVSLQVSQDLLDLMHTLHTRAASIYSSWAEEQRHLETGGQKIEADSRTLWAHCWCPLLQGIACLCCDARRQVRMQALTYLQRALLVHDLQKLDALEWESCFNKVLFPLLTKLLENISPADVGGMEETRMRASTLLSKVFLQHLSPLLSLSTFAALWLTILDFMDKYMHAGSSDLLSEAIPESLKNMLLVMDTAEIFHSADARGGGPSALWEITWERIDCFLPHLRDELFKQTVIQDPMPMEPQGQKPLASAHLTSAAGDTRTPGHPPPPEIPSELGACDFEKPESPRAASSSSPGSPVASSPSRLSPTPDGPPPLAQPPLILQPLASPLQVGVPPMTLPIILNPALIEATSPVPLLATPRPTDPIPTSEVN
T4 sequence (Q08211 whole entry): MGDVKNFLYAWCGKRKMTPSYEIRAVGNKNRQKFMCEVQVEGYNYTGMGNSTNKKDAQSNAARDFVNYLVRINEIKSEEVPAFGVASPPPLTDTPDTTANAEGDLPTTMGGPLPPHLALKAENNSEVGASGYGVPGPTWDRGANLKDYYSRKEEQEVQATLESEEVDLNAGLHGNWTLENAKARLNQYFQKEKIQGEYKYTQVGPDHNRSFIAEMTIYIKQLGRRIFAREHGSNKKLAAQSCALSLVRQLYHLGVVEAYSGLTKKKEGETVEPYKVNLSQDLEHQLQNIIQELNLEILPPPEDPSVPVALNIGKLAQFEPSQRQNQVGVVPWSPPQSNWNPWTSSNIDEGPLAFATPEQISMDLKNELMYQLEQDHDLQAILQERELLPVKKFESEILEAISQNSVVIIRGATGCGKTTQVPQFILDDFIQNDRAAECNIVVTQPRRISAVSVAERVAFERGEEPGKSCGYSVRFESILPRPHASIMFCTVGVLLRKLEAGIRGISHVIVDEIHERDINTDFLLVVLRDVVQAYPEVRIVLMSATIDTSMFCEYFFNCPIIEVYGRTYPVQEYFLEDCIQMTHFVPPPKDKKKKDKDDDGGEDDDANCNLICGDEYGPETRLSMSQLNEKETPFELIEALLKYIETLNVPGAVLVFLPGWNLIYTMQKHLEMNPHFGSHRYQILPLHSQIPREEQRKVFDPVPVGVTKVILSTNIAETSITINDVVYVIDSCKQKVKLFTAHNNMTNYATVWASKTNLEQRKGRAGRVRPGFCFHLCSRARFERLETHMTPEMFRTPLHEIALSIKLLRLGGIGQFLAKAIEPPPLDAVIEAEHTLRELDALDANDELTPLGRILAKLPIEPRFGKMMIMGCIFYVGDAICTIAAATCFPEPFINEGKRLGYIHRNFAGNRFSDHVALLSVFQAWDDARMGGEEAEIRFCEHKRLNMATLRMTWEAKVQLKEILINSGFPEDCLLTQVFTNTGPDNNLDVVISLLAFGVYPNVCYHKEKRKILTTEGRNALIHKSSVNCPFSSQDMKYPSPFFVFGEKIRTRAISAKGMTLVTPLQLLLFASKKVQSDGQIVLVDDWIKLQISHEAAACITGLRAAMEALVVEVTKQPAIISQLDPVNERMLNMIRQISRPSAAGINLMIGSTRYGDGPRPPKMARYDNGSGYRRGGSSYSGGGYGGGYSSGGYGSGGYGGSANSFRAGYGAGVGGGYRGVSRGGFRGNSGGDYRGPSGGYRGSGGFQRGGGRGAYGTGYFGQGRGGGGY
T8 sequence (O00571 2-662 limits assumed): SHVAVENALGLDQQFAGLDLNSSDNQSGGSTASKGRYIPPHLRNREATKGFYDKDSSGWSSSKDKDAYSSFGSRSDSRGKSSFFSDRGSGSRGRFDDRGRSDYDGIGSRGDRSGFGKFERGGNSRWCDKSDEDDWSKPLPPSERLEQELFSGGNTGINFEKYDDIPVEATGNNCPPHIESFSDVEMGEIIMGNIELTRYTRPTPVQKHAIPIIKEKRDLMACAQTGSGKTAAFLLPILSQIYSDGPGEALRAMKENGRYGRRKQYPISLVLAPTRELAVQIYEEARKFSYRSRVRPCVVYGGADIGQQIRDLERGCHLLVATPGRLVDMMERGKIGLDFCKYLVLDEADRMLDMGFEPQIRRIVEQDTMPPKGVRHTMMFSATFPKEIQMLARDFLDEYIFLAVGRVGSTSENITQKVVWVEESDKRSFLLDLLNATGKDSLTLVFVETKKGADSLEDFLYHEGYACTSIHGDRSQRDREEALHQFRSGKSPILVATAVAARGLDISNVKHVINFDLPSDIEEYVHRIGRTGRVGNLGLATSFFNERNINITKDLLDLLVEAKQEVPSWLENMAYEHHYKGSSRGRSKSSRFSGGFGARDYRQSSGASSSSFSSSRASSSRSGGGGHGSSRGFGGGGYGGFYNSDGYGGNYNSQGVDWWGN

B1: N-terminal FLAG tagged B3GNT2 (enzyme, human, UniProt Q9NY97 1-397, looked up)
chain: MSVGRRRIKLLGILMMANVFIYFIMEVSKSSSQEKNGKGEVIIPKEKFWKISTPPEAYWNREQEKLNRQYNPILSMLTNQTGEAGRLSNISHLNYCEPDLRVTSVVTGFNNLPDRFKDFLLYLRCRNYSLLIDQPDKCAKKPFLLLAIKSLTPHFARRQAIRESWGQESNAGNQTVVRVFLLGQTPPEDNHPDLSDMLKFESEKHQDILMWNYRDTFFNLSLKEVLFLRWVSTSCPDTEFVFKGDDDVFVNTHHILNYLNSLSKTKAKDLFIGDVIHNAGPHRDKKLKYYIPEVVYSGLYPPYAGGGGFLYSGHLALRLYHITDQVHLYPIDDVYTGMCLQKLGLVPEKHKGFRTFDIEEKNKNNICSYVDLMLVHSRKPQEMIDIWSQLQSAHLKC
notes: FLAG-tagged ORF overexpressed in cells; pulled down from lysate with mouse anti-FLAG; also called N-FLAG B3GNT2; N-term FLAG; not shown: N-terminal FLAG tag
For the molecule B1, the “co-IP mass spectrometry count” value stood at 0 with TBL2; 3 with PKM; 16 with CHCHD3; 0 with DHX9; 29 with FLG; 3 with S100A7. Besides, the “co-IP mass spectrometry count” value with GBF1 was determined as 0.

B2: N-terminal FLAG tagged B3GNT2 (enzyme, human, UniProt Q9NY97 1-397, looked up)
chain: B1 chain
notes: FLAG-tagged ORF overexpressed in A375 cells; pulled down from the lysate with mouse anti-FLAG; also called N-FLAG B3GNT2; N-term FLAG; not shown: N-terminal FLAG tag
For the molecule B2, the figures for the “co-IP/MS count, N-term FLAG” value in the test with DDX3X and in the test with PUF60 were 18 and 6, respectively.

These data come from patent US20240261333A1 (published 2024).
